The values below come from patent US7811561 (dated 2010).

Data set [1] addresses GST-RB (source of Rb protein substrate).
The target of a further data set is T1, cyclin D1 (UniProt P25322 1-295).
T1 construct: Immunoprecipitated from NIH 3T3 lysates
Briefly: co-immunoprecipitation and immunoblotting, NIH 3T3 cell lysates. The protocol: (§1) TBS was Tris-buffered saline containing 0.1% (w/v) sodium dodecyl sulfate. Samples were pre-cleared with Protein-G beads (GIBCO, Grand Island, N.Y.) and either normal rabbit or mouse serum (each at a 1:1000 dilution). Immunoprecipitation of cyclin D1 was carried out for 12 hours at 4° C. Immune complexes were precipitated using 1 to 5 micrograms of antibody and Protein-G agarose, and were then heated at 95° C. for 5 minutes in IP buffer, which comprised 93 millimolar Tris, 3% (w/v) SDS, 1.1 millimolar β-mercaptoethanol, 0.03% (w/v) bromophenol blue (BPB), and 15% (v/v) glycerol (SIGMA, Saint Louis, Mo.) at a pH of 6.8. The eluant was analyzed using a denaturing, reducing SDS-PAGE gel, and the contents of the gel were transferred to supported nitrocellulose filter by electroblotting. Filters were incubated with 1 to 5 micrograms of an antibody which binds specifically with one of the following: cyclin D1, cdk4, cdk6, PCNA, and p21. Horseradish peroxidase-linked anti-mouse or anti-rabbit whole antibody was used as a secondary antibody. Chemiluminescence was detected using an ECL™ kit (Amersham Life Science, Arlington Heights, Ill.) according to the manufacturer's instruction.
(§2) An increased level of cyclin D1 protein was detected by immunoprecipitation in lysates from NIH 3T3 cells transfected with PCMV-MCT-1, relative to asynchronously grown control cells which were not transfected or which were transfected with control vector. Because cdk4 and cdk6 associate with cyclin D1 during cell cycle progression, complex formation among these molecules was investigated using co-immunoprecipitation analysis. Increased subunit complex formation in NIH 3T3 cells constitutively expressing MCT-1, relative to cells which were not transfected with a vector encoding MCT-1. Physical interaction of PCNA with cyclin D1-cdk4/cdk6 complexes was also investigated. Co-immunoprecipitation of cyclin D1 and PCNA was detected at an increased level, relative to cells which were not transfected with a vector encoding MCT-1. Direct physical interaction was not detected between MCT-1 and any of proteins cyclin D1, cdk4, cdk6, and PCNA under these assay conditions.
In general terms: Immunoblotting shows a protein as a band on a membrane.

The next data set concerns the target cdk6 (UniProt Q64261 1-326). The description is as above. The protocol: as §1, §2
The next data set addresses T2, cdk4 (UniProt P30285 2-303).
T2 sequence (looked up): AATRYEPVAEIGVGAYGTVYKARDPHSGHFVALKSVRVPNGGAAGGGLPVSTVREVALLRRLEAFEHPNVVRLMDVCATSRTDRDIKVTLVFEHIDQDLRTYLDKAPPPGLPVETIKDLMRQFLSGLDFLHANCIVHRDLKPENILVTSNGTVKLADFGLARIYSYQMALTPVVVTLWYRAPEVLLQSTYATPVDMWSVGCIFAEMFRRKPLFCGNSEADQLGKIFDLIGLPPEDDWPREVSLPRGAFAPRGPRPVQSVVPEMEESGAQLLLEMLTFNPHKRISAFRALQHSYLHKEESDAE
Described as above. As for the experimental part: as §1, §2

A further data set deals with PCNA (UniProt P17918 1-261). Described as above. As for the experimental part:
as §1, §2

T1 sequence (P25322 whole entry): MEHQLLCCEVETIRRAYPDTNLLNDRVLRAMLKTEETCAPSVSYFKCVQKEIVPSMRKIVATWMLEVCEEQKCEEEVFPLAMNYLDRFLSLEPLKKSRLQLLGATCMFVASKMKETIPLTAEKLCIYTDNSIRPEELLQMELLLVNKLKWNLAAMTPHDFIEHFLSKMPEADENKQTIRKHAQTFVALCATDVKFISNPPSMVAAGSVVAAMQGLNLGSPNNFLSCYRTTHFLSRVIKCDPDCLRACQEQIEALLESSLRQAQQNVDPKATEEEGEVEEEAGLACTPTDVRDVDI
PCNA, sequence (P17918 whole entry): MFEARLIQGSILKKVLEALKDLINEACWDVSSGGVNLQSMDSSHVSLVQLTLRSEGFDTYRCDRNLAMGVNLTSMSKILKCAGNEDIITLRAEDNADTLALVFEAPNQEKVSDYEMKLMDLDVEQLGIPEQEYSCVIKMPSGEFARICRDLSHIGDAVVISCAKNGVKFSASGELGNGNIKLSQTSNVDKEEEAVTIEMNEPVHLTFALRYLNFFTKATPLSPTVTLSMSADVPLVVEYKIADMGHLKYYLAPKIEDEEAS

B1: cdk6 (protein)
chain: MEKDSLSRADQQYECVAEIGEGAYGKVFKARDLKNGGRFVALKRVRVQTSEEGMPLSTIREVAVLRHLETFEHPNVVRLFDVCTVSRTDRETKLTLVFEHVDQDLTTYLDKVPEPGVPTETIKDMMFQLLRGLDFLHSHRVVHRDLKPQNILVTSSGQIKLADFGLARIYSFQMALTSVVVTLWYRAPEVLLQSSYATPVDLWSVGCIFAEMFRRKPLFRGSSDVDQLGKILDIIGLPGEEDWPRDVALPRQAFHSKSAQPIEKFVTDIDELGKDLLLKCLTFNPAKRISAYGALNHPYFQDLERYKDNLNSHLPSNQSTSELNTA
As for B1, the “in vitro immune complex kinase assay (32P phosphorylation of Rb protein)” value in data set [1] is “A markedly increased ability to phosphorylate Rb protein”.

B2: cdk4 (protein)
chain: AATRYEPVAEIGVGAYGTVYKARDPHSGHFVALKSVRVPNGGAAGGGLPVSTVREVALLRRLEAFEHPNVVRLMDVCATSRTDRDIKVTLVFEHIDQDLRTYLDKAPPPGLPVETIKDLMRQFLSGLDFLHANCIVHRDLKPENILVTSNGTVKLADFGLARIYSYQMALTPVVVTLWYRAPEVLLQSTYATPVDMWSVGCIFAEMFRRKPLFCGNSEADQLGKIFDLIGLPPEDDWPREVSLPRGAFAPRGPRPVQSVVPEMEESGAQLLLEMLTFNPHKRISAFRALQHSYLHKEESDAE
Take B2: the “in vitro immune complex kinase assay (32P phosphorylation of Rb protein)” value in data set [1] was “A markedly increased ability to phosphorylate Rb protein”.

B3: MCT-1 (Multiple Copies in T-cell malignancy) protein (other)
chain: MFKKFDEKENVSNCIQLKTSVIKGIKNQLIEQFPGIEPWLNQIMPKKDPVKIVRCHEHIEILTVNGELLFFRQREGPFYPTLRLLHKYPFILPHQQVDKGAIKFVLSGANIMCPGLTSPGAKLYPAAVDTIVAIMAEGKQHALCVGVMKMSAEDIEKVNKGIGIENIHYLNDGLWHMKTYK
notes: Expressed from the full length MCT-1 cDNA (pCMV-MCT-1) in stably transfected NIH 3T3 fibroblasts and tested in cell lysates
As for B3, the binding result in the data set with cyclin D1, in the data set with cdk6, with cdk4 and with PCNA was “no binding” in each case.
